{"source": "paper PMC11972413", "assay_in_all_cases": "cryo-EM structure", "key": {"[1]": {"target": "puncture apparatus (PA) (bacteriophage φTE)"}, "[2]": {"target": "hub protein (bacteriophage φTE)"}, "[3]": {"target": "major capsid protein (MCP) (bacteriophage φTE)"}, "[4]": {"target": "adapter protein (bacteriophage φTE)"}, "[5]": {"target": "tail sheath protein (bacteriophage φTE)"}, "[6]": {"target": "short-tail fiber (STF) (bacteriophage φTE)"}, "[7]": {"target": "tape measure protein (TMP), six-stranded part along the tail (bacteriophage φTE)"}, "[8]": {"target": "tube initiator (TI) protein (bacteriophage φTE)"}, "[9]": {"target": "long-tail fiber (LTF) (bacteriophage φTE)"}, "[10]": {"target": "tail tube protein (bacteriophage φTE)"}, "[11]": {"target": "portal protein (bacteriophage φTE)"}, "[12]": {"target": "minor capsid protein (DEC) (bacteriophage φTE)"}}, "data": [{"substance": "puncture apparatus (PA) (natural protein)", "values": [{"measurement": "stoichiometry N", "setting": "[1]", "value": 3}, {"measurement": "stoichiometry N", "setting": "[2]", "value": 1}]}, {"substance": "major capsid protein (MCP) (natural protein)", "values": [{"measurement": "stoichiometry N", "setting": "[3]", "value": 6}]}, {"substance": "hub protein (natural protein)", "values": [{"measurement": "stoichiometry N", "setting": "[2]", "value": 3}]}, {"substance": "adapter protein (natural protein)", "values": [{"measurement": "stoichiometry N", "setting": "[4]", "value": 12}]}, {"substance": "tail sheath protein (natural protein)", "values": [{"measurement": "stoichiometry N", "setting": "[5]", "value": 6}]}, {"substance": "short-tail fiber (STF) (natural protein)", "values": [{"measurement": "stoichiometry N", "setting": "[6]", "value": 3}]}, {"substance": "tape measure protein (TMP), six-stranded part along the tail (natural protein)", "values": [{"measurement": "stoichiometry N", "setting": "[7]", "value": 6}]}, {"substance": "tube initiator (TI) protein (natural protein)", "values": [{"measurement": "stoichiometry N", "setting": "[8]", "value": 6}]}, {"substance": "long-tail fiber (LTF) (natural protein)", "values": [{"measurement": "stoichiometry N", "setting": "[9]", "value": 3}]}, {"substance": "tail tube protein (natural protein)", "values": [{"measurement": "stoichiometry N", "setting": "[10]", "value": 6}]}, {"substance": "portal protein (natural protein)", "values": [{"measurement": "stoichiometry N", "setting": "[11]", "value": 12}]}, {"substance": "minor capsid protein (DEC) (natural protein)", "values": [{"measurement": "stoichiometry N", "setting": "[12]", "value": 3}]}]}
